Measured values from a protein production outcome set (Wang et al. 2014).

Assay: label from the status in PepcDB records

Row | Sequence | protein production
1 | MLKALKKIFGKADGTQPQSGSSPVPQGPAGATAKGTAPTGEKPTEKRPRKPRPPRADNESGAPRAAEKAEKAEKPAKPAGKEGRDAKPRTDKPRRERKPKPVDNWKLEDFVVEPQEGKTRFHDFNLAPSLMHAIHDLGFPYCTPIQAQVLGFTLRGQDAIGRAQTGTGKTAAFLISIITQLLQTPPPKERYMGEPRALIIAPTRELVVQIAKDAAALTKYTGLNVMTFVGGMDFDKQLKQLEARFCDILVATPGRLLDFNQRGEVHLDMVEVMVLDEADRMLDMGFIPQVRQIIRQTPHKGERQTLLFSATFTDDVMNLAKQWTVDPAIVEIEPENVASDTVEQHVYAVAGSDKYKLLYNLVAQNNWERVMVFANRKDEVRRIEERLTKDGISAAQMSGDVPQHKRIRTLEGFREGKIRVLVATDVAGRGIHIDGISHVINFTLPEDPDDYVHRIGRTGRAGASGTSISFAGEDDAFALPPIEELLGRKITCEMPPAELLKPVPRKH | failed
2 | PVEEVMPVLEEKERSASYKPVFVTEITDDLHFYVQDVETGTQFQKLMENMRNDIASHPPVEGSYAPRRGEFCIAKFVDGEWYRARVEKVESPAKIHVFYIDYGNREVLPSTRLGTLSPAFSTRVLPAQATEYAFAFIQVPQDDDARTDAVDSVVRDIQNTQCLLNVEHLSAGCPHVTLQFADSKGDVGLGLVKEGLVMVEVRKEKQFQKVITEYLNAQESAKSARLNLWRYGDFRADDADEFGYSR | not failed
3 | MEFEVEYDILVIVLVAFYILAATRIAHVIGLPPGVVEIIMGAMLAFWGVKSTEVLTLLAAIGANLLLFMAGSEIDLALLRSILPQAVIVALVSALAPLALTALLHVYLGLSLTSSLVILASLSATSVALTYLLLSSYRLVRSRLGQLALASAMLLDLSGMIMLNIATASISPSLAFYIVILLAALLLYPLLPRLGGAPFEAEIRLITMTVIILGFLSDFVGVHSVLTSFILGVIASETVRTRVQLREKLESLATGFFTPFFFIASGMSIDPGIPLHYVALALAGGVALALARTYTVYFYFRLTGSSRRSSLIAASSTAMLLTVTIIAASVGFQLGLLDSLMYSVLVWIVVGTILGSFALVKMR | failed
4 | MTGDYALCGWRVRIDRPSTFAPPWIGEDRPVDITIRHAAFSPPSPPLLFESPLVGVFAEGAIVLRINPGLGFLIEGGARITVDATAQTGEAEIATFLFGQCLGFLALQRRQPALRAASVVRDGRAVVLAGAAGVGKSTLAAALMAKGWGLLADEVTLIDPRTLLIPPAFGRIKLWKDSATHLGLEAAALPAVRPGWNKGHAPYGGHLAPAPVPLAAIILIEQAYTAKTAGIDKIAPREALAALNDQLHGGTFAGALAARPACFDLLTTLVGGVPVFQLSRPWHGMTLAPLVELLTAEMARLEHHHHHH | failed
5 | MPTLLMITPENLEIKRFRAYQLNNFMQLTMPYLAGFVPKEYDIRLLDEHTEPIIFEKFDLVAITVNTPNAPYAYAISKKFRELGSWVALGGPHVTLNPEEAALHCDTIFIGEAEETWPQFLNDFLCKKAQKVYTSSRAPSLAGLPIPRRDLIVGNRFISGAVFASRGCPHNCSYCSLKKIYHNTFRTRPVDEVIKDIASMPNKYFVFWDDNFFADPSYTKALLKDLAKLNKKWAAQVTAHSCEDEELLRLAKSAGCLYLFLGLESFSEQGLKDANKSFNKIEQYGKIADKLHRHGISIQAGIVFGFDSDTPDVFETTLKACNDIGIDGVTASILTPFPGTGIYDQYKNEGRLLDVGWNYYNGKTRVAYVPKQMSPEELLNGYNEFRRKFYSWKSIIKRICKSRVNIFYNLAMNYGYRQAYRNFAKLDIGDSKGMNIFEQLI | failed
6 | MDSSREANRKHDAEEKREDEKTSLMEVNLMVVLLSQLSTKKEDENGLEKERRDHVAHEARESRARANKRFMKDTKLMEKRTHVLQPMAKEFRHYRKM | failed
7 | MKSSDIDQDLFTDSYCKVCSAQLISESQRVAHYESRKHASKVRLYYMLHPRDGGCPAKRLRSENGSDADMVDKNKCCTLCNMSFTSAVVADSHYQGKIHAKRLKLLLGEKTPLKTTGLRRNYRCAICSVSLNSIEQYHAHLKGSKHQTNLKNK | failed
8 | MTDTASKYAVKLKTNFEDPKWVNRHKFMFNFLDINGNGKITLDEIVSKASDDICAKLGATPAQTQRHQEAVEAFFKKIGLDYGKEVEFPAFVNGWKELAKHDLKLWSQNKKSLIRNWGEAVFDIFDKDGSGSISLDEWKTYGGISGICPSDEDAEKTFKHCDLDNSGKLDVDEMTRQHLGFWYTLDPNADGLYGNFVP | not failed
9 | MQEKGFKEGVKASLPTALGYVSIGLACGVVGANSGLTPFQMGLMSLLVYAGSAQFVMCAMFVAGADLFSIVMTVFLINLRNFLMSLHATTIFTKSSLWQTICIGTLITDESYGVLLNEHVHHKNISTAWMHGNNITGYIAWLFAVILGTALGSVIPNPETLGLDFALIAMFVSIFESQLAAMMQFVKLKKIGLILLAVTLSYFLLVIVISESLAVLLSTLIGCFAGVLLDVR | failed
10 | FIFFNQPKTPEESIQLLGAQAGDTESFRVTLDRIPPQIQKLSFTATLDGAGQMSQVAPGYLRIVAGGEEVARYSFTGSEFSTERAVMLGDFYLKDVWRFAAVGQGFDGGLDALL | failed
11 | MTNWKPLVSVITPSYNARDYIEDTVHSVLDQSHPHWEMIIVDDCSTDGTRDILQQYEKIDERIHVVYLEENSGAAVARNKALERAQGRYVAFLDSDDKWKKDKLEKQLEFMMERSCAFSFTGYSLMAQDGTPLDKFIHAPESLTYDDALKNTIIGCLTVMIDREQTGQIQMPNIRTRQDLATWLSLLKKGFTAYGMNECLAEYRLVNNSISSNKWKAAKKTWFVYREIERLHFMKATWCFVQYAKNAVKKRLLEHHHHHH | not failed
12 | MVKSKVKKVEKGKEGEEKRSTYVLLKKVLIPILVFGFAIYAFYLRHLTAGKYFPDPDTFYHFEIYKLVLKEGLPRYYPMSDAPFGSLIGEPLGLYLLPAAFYKVVSLFGYNELQAFLLWPPFVGFLGVIAVYLLGRKVLNEWTGLWGAVVLTVSTANFSRTFSGNARGDGPFMALFIFASVAMLYYLKESNKTRKIIYGTLFVLLTVISLGAWNGSPFGLMVLLGFASLQTIILFIFGKLEELKKFVKEFYPAYLAILAFGYALTFPGIVKIGGFIRFAFEVFLGLIFLLVIMLYGGRYLNYSDKKHRFLVVTIIVLLGFGGAYAYVGPKLFRLMGGAYQSTQVYETVQELAKTTIGDVKAYYGVESGNGLIFFLSIPGLLILLTKYLYDLFKKAKSDNETLFALVFYTMSLYLLYLAVRFLFLASYAVALFFGIFIGFSMDVIEKMKENIGIKAALGIVLSLMILVIPFVHAPVLARSARALKNTEIEVTGWEQALKWLRSNTSKYATATSWWDYGYWIESSLLGNRRASADGGHARDRDHILALFLARDGNISEVDFESWELNYFIIYLNDWAKFNAISYLGGAITRKEYNGDENGRGRVTTILLTQAAGNVYVNPYARIVIKVIQQNKTRRIAVNIGQLECSPILSVAFPGNIKIKGSGRCSDGSPFPYVVYLTPSLGVLAYYKVATSNFVKLAFGIPTSSYSEFAEKLFSNFIPVYQYGSVIVYEFRPFAIYKIEDFINGTWREVGKLSPGKHTLRLYISAFGRDIKNATLYVYALNGTKIIKRIKVGEIKYMNHLEEYPIIVNVTLPTAQKYRFILAQKGPVGVLTGPVRVNGKITNPAYIMREGESGRLELKVGVDKEYTADLYLRATFIYLVRKGGKSNEDYDASFEPHMDTFFITKLKEGIKLRPGENEIVVNAEMPKNAISSYKEKLEKEHGDKLIIRGIRVEPVFIVEKEYTMIEVSASAPHHSSE | failed
13 | MSPEAKEAQDSRRNEMPEKKRAVLRKAIKLEWATIAWVLFSIVLVGVVAGQSQAMRSAWIEDMLSLVPPIAFLLASRISKAVATRKHPYGKHRSIAIGHQAAALALLIMGSLLIYEAVSALIKGERPPIGLAILFGHDVWSGWLMIGVMISVSIPMVIVGRVKINLAKDLHDKLLYADADMAKADWGTAVASTVGVLGIGLGFWWADAVAALVISASILRDGVINMKAAISDLGDGRAMTYDNSAPHPLNDDVEKAALEMHWVKHARARIRDQGRCFHTELFVEPVEGYTPAPEEITSLVKRIQNLDWKLQDVVASVVEKIDRFQAPS | failed
14 | NGGIPHDNLVLIRMKPDENGRFGFNVKGGYDQKMPVIVSRVAPGTPADLCVPRLNEGDQVVLINGRDIAEHTHDQVVLFIKASCERHSGELMLLVRPNAVYDVVEE | not failed
15 | RNVWVVAELDEQGVSEASLQMLTPARRIADKLGESVVGVIAGPPGSSQLAVEMVERGADEVIVVEHERLSEYYPDVVGSVIVELSLKYKPSVILFAATARGREMAPYVANTLKTGITADCTDFDVDPKTRDVLLIRPPFSAIMLAYIRTPFRRPQIGTARPNVFPLPERQPGRQGRIVREEVEPPEPMARLVNRVRIPRSEVP | failed
16 | MKTLDFRRAGAHIALVVLFAVCPVAFADENDEVAKLYQQGNLDKALEQANAYLALKPKDPQMRFHKGLILTEQQKIPDAIKVFSSLSEDYPNLPEPYNNLAVLYASQGLYEKARGALEAAIRTHPSYSIAHENLGDIYAKLASEAYGKALQLDQGNAAAQTKLAMIKDLFIGKSGAIKTASAATAPAPPASAAPRSPAATTPSPPRSAAPATPPASVHPAPGKAPQKSAEKKTEKAEKSAPGKIAAVETHSPEKKTDVPDESDEIIKTVNAWARAWSDKNVTAYFAFYAADFQTPRGVKRTTWEKTRRDRIIKPKAIQVEITHPKVTLINPARARVSFRQLYHSDAFKHDSSKTLEMVKTDGKWQIRQERSAK | failed
17 | MSLILCIDVGNSHIYGGVFDGDEIKLRFRHTSKVSTSDELGIFLKSVLRENNCSPETIRKIAICSVVPQVDYSLRSACVKYFSIDPFLLQAGVKTGLNIKYRNPVEVGADRIANAIAATHSFPNQNIIVIDFGTATTFCAISHKKAYLGGAILPGLRLSADALSKNTAKLPSVEIIKTESVVGRSTIESIQSGVYYGVLGACKELIQRIHHEAFNGDQILILATGGFASLFDKQGLYDHLVPDLVLQGIRLAAMMNTAEGHHHHHH | not failed
18 | PIEGEKVDLRIMSTTDLHTNLVNYDYYQDKESQKIGLAKTAVLIEEAKKENPNTVLVDNGDVIQGTPLGTYKAIVKPVAENEEHPMYQAMNALGYDASTLGNHEFNYGLDYLKKIIATANLPILNANVLDFKTHQPVFKTYDIITKTFKDSTGRAVALNIGITGIVPPQILNWDKANLEGKVIVKDSVKAIEEIVPTMRAKGADVILVLSHSGIGDDRYEEGEENVGYQIASIKGVDAVVTGHSHAEFPSGNGTGFYEKYTGVDGINGKINGTPVTMAGKYGDHLGIIDLGLSYTNGKWQVSESSAKIRKIDMNSTTADERIIALAKEAHDGTINYVRQ | not failed
19 | MERKLSNGCVASKSEELAKQQLPPPPDQDQEQPALQPPKVNGLKENQAVKHNNNNNTNNNNNKNGLVNGNAKKDELKAAEDHDTQSKEDDDPKEKVVKPKLNGNLIKNPIDKTAETQDKIAQPAPEPPLPKRPKLETPTSNEVTKANGQLVQQQLESRESEEEPQHVDE | failed
20 | MASNMDREMILADFQACTGIENIDEAITLLEQNNWDLVAAINGVIPQENGILQSEYGGETIPGPAFN | failed
